Here are results for four molecules from patent US20220016168A1, “METHODS OF USING CD27 ANTIBODIES AS CONDITIONING TREATMENT FOR ADOPTIVE CELL THERAPY” (Celldex Therapeutics, Inc., priority 2018, published 2022).

One assay has as its system E.G7 cells. Briefly: E.G7 tumor model with OT-I T-cell adoptive therapy. The conditions noted are these: 100 μg i.p. day 8 or 20 μg day 17. The assay is classed as in vivo, mice.
The target of assay [1] is T1, CD27 extracellular domain fragment, amino acid residues 1-110, R87A mutation sequence, fused with a human … (human, UniProt P26842 21-130).
T1 construct: Used as culture supernatant of transient transfection; also called CD27R87A; mutant CD27 fragment; not shown: human kappa chain at the N-terminus; flag-tag at the C-terminus
T1 chain: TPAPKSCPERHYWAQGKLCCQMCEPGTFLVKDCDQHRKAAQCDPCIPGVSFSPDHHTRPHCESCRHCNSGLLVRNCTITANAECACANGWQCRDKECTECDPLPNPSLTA
Briefly: ELISA, CD27 fragment captured by anti-flag Ab.

The next assay deals with recipient CD3 T-cells. Briefly: Recipient T-cell depletion after CD27 Ab pretreatment (flow cytometry). The format is in vivo, mice. The conditions noted are these: 300 μg days -14 and -2, hCD27+/+mCD27-/- mice. As for the experimental part: Spleens and pLNs were collected from one set of mice on day 0 without cell transfusion and from another set of mice 14 days post intravenous (i.v.) transfusion with 2×10^6 CFSE-labeled w.t. CD8 T-cells for the assessment of recipient cell depletion (FIG. 4A) and donor cell expansion (FIG. 4B). Percentages of recipient CD3 T-cells (CD45.1^+CD45.2^−CD3^+) and donor origin CD8 T-cells (CD45.1^−CD45.2^+CD3^+CD8^+) out of total live cells in spleens and pLNs were determined by flow cytometry and the absolute numbers of donor origin cells were calculated based on total cell counts of spleens and pLNs.
These mice were bled and then transfused with 2×10^6 CD8 T-cells on day 0. Shown are the percentages of donor origin cells out of total live cells in the spleen and pLNs after 14 days of in vivo expansion (FIG. 10A) and the percentages of CD3 T cells in recipients' blood on day 0 before transfusion (FIG. 10B). Data are from one representative experiment of two performed, n=5 mice per group, *p<0.05, **p<0.01, ***p<0.001 indicating statistical significance compared to isotype control or between groups as specified by the horizontal line.
CD8 T cells on day 0. Spleens and pLNs were collected on day 14 and processed for flow cytometry analysis. […] CD8, CD4 and Treg cell counts per μl blood were depicted in FIG. 11C (n=6 mice per group).
(A flow cytometer gives signals particle by particle.)

The test system of assay [2] is SIINFEKL-specific IFNγ spots. The experiment in a line: OVA immunisation ELISPOT (co-stimulatory/agonistic activity). The note with it: 5 mg OVA and 50 μg Ab on day 0, spleens 7 days later, hCD27+/-mCD27wt mice. The format is in vivo. An excerpt: Shown are […]-specific IFNγ spots number per spleen, n=4 or 5 mice per group (FIG. 9C). Data are from one representative experiment of two performed, *p<0.05, ***p<0.001, ****p<0.0001, indicating statistical significance compared to isotype control or between groups as specified by the horizontal line.
Spleens were collected 7 days later for ELISPOT analysis. Shown are […]-specific IFNγ spots number per spleen, n=5 mice per group (FIG. 10C). Data are from one representative experiment of two performed, *p<0.05, **p<0.01, indicating statistical significance compared to isotype control or between groups as specified by the horizontal line.

For assay [3], the target named is T2, human CD70-Fc binding to CD27 on CD4+CD25+ Treg cells (Homo sapiens, UniProt P26842).
T2 construct: from tissue; host or cells: splenocytes from hCD27+/+ mCD27-/- transgenic mice
T2 sequence (P26842 20-260): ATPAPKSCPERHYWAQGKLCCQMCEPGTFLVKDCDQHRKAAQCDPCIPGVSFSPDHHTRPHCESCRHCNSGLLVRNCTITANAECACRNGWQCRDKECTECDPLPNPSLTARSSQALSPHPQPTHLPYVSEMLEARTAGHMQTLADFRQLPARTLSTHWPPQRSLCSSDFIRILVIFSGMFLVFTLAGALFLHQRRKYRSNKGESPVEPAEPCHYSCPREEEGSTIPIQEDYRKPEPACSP
The experiment in a line: hCD70-Fc staining on hCD27+/+mCD27-/- splenocytes preincubated with Ab (ligand blocking). The note with it: 10 μg Ab 30 minutes on ice, vs hIgG1 isotype control. As for the experimental part: Splenocytes from hCD27^+/+mCD27^−/− mice were incubated with 10 μg Ab as indicated for 30 minutes on ice and then stained with a fluorescently labeled human CD70-Fc fusion protein (0.5 μg) and Abs for cell surface markers. Shown is a histogram of hCD70-Fc staining on gated CD4^+CD25^+ Treg cells.

The target in assay [4] is T3, mouse CD27 on splenocytes (gated CD4+CD25+ Treg cells) of w.t. mice (mouse, UniProt P41272 24-250).
T3 construct: whole, on cells; also called mCD27
T3 sequence (looked up): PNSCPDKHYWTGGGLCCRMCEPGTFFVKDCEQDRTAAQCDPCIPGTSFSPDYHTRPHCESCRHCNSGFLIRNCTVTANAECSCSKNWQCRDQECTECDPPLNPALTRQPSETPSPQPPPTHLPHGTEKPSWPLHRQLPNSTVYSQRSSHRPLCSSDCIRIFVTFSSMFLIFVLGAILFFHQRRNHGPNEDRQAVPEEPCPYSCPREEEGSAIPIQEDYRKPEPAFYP
Briefly: flow cytometry, labeled mCD70-Fc (0.5 ug) on gated CD4+CD25+ Treg cells of w.t. mouse splenocytes. An excerpt:
FMO stands for fluorescence minus one, reflecting background fluorescence on the same gated cells.

Regarding “SIINFEKL (Ovalbumin peptide; listed as Gallus gallus) [reference compound]”, the “long-term survival with or without SIINFEKL peptide injection following OT-I T cell transfer” value with E.G7 cells is “no difference in long-term survival”.

B1: varlilumab (antibody, human IgG1, kappa, V domains shown)
VH: QVQLVESGGGVVQPGRSLRLSCAASGFTFSSYDMHWVRQAPGKGLEWVAVIWYDGSNKYYADSVKGRFTISRDNSKNTLYLQMNSLRAEDTAVYYCARGSGNWGFFDYWGQGTLVTVSS
VL: DIQMTQSPSSLSASVGDRVTITCRASQGISRWLAWYQQKPEKAPKSLIYAASSLQSGVPSRFSGSGSGTDFTLTISSLQPEDFATYYCQQYNTYPRTFGQGTKVEIKR
notes: Fully human monoclonal anti-human CD27 antibody; also called 1F5; CDX-1127
Consider B1, for which the binding result in assay [1] is listed as “no binding”.

B2: varlimut: a FCD265A mutated mouse IgG1 isotype of varlilumab (antibody, V domains shown)
VH: QVQLVESGGGVVQPGRSLRLSCAASGFTFSSYDMHWVRQAPGKGLEWVAVIWYDGSNKYYADSVKGRFTISRDNSKNTLYLQMNSLRAEDTAVYYCARGSGNWGFFDYWGQGTLVTVSS
VL: DIQMTQSPSSLSASVGDRVTITCRASQGISRWLAWYQQKPEKAPKSLIYAASSLQSGVPSRFSGSGSGTDFTLTISSLQPEDFATYYCQQYNTYPRTFGQGTKVEIK
Turning to B2, the “depleting activity (percentages of CD3 T cells in recipients' blood on day 0)” value with recipient CD3 T-cells was “no depleting and agonistic activities”. The “co-stimulatory / agonistic activity (SIINFEKL-specific IFNγ spots number per spleen)” value in assay [2] was “no depleting and agonistic activities”. Also, in assay [3], the “hCD70-Fc staining on gated CD4+CD25+ Treg cells (ligand blocking)” value is on record as “blocks ligand binding”.

B3: mouse CD70-Fc fusion protein (Fc fusion, UniProt O55237 45-195, looked up)
chain: SKQQQRLLEHPEPHTAELQLNLTVPRKDPTLRWGAGPALGRSFTHGPELEEGHLRIHQDGLYRLHIQVTLANCSSPGSTLQHRATLAVGICSPAAHGISLLRGRFGQDCTVALQRLTYLVHGDVLCTNLTLPLLPSRNADETFFGVQWICP
notes: Fluorescence-labeled; also called mCD70-Fc; not shown: Fc part
Regarding B3, the binding result in assay [4] is given as “binds”.
